{
  "source": "patent US20250276075A1",
  "about": "“METHODS OF TREATING AXL-EXPRESSING CANCERS WITH ANTI-AXL ANTIBODIES, ANTIBODY FRAGMENTS AND THEIR IMMUNOCONJUGATES” (BIOATLA, INC., priority 2020, published 2025)",
  "molecules": {"B1": {"name": "Mecbotamab vedotin (conjugate, chains of the INN, looked up)", "VH": "EVQLVQSGAEVKKPGATVKISCKVSGYSFWGATMNWIRQPPGKGLEWIGLIKPSNGGTSYNQKFKGRVTISADKSISTAYLQWSSLKASDTAMYYCAHGHYESYEAMDYWGQGTLVTVSS", "VL": "DIQMTQSPSSLSASVGDRVTITCKASQDVVSAVAWYQQKPGQAPRLLIYWQDTRHTGVPSRFSGSGSGTEFTLTISSLQPDDFATYYCQEHFSPPLTFGQGTKVEIK", "modifications": "MC-vc-PAB-MMAE conjugate"}},
  "test": "Phase 1 clinical study of BA3011: safety (adverse events, DLT, MTD, RP2D)",
  "type": "in vivo, human",
  "details": "Phase 1",
  "text": "MTD evaluation will be based on the DLT-evaluable Population. The DLT-evaluable Population includes all patients enrolled in Phase 1 dose escalation who receive at least 1 full assigned dose of BA3011 and complete the safety follow-up through the DLT-evaluation period (defined as the time period from the first dose of BA3011 through 21 days post Dose 1) or experience any DLT during the DLT-evaluation period. Non-DLT-evaluable patients will be replaced. The safety evaluation will be based on the As-Treated Population. Adverse events (AEs) will be coded by Medical Dictionary for Regulatory Activities (MedDRA) and graded according to the NCI CTCAE v4.03, and the type, incidence, severity, and relationship to each IP will be summarized. If any associations of interest between AEs and baseline characteristics are observed, additional stratified results may be presented. All treatment-emergent AEs will be summarized by MedDRA system organ class and preferred term. Laboratory abnormalities with toxicity grades according to the NCI CTCAE will be summarized.\nA DLT is defined as meeting 1 of the following criteria during the 21-day DLT evaluation period or a treatment-related toxicity of any grade requiring dose delay of 1 week or more between the first and second cycles: • Non-hematologic Toxicity • For non-hematologic toxicities, DLT will be defined as any National Cancer Institute (NCI) Common Terminology Criteria for Adverse Events (CTCAE) v4.03 (published 14 Jun. 2010) Grade 3 or greater toxicity at least possibly related to treatment, except for: • Grade 3 fatigue. • Grade 3 nausea and vomiting lasting less than 24 hours. • Grade 3 non-hematologic laboratory abnormalities that are asymptomatic and resolve to Grade 1 or baseline (if the patient entered the study with existing toxicity) within 14 days. • Grade 3 or 4 allergic or hypersensitivity reaction at first occurrence in the absence of prophylactic steroid that resolves in less than 6 hours with appropriate clinical intervention\n• DLT for hematologic toxicity, using NCI CTCAE v4.03, will be defined as: • Grade 4 neutropenia lasting greater than 7 days. • Grade 3 or 4 febrile neutropenia. • Grade 4 platelet count (<25,000/mm3) at any time.\nStudy BA3011-001 was an ongoing, multi-center, open-label, Phase 1/2 first-in-human trial of BA3011.\nIn Phase 1 (NCT03425279), BA3011 was administered once (Q3W) or twice (2Q3W) every 3 weeks via intravenous (IV) infusion.",
  "key": {"[1]": {"details": "0.3 mg/kg Q3W, 1 sarcoma patient"}, "[2]": {"details": "1.2 mg/kg 2Q3W, 2 sarcoma patients"}, "[3]": {"details": "1.8 mg/kg 2Q3W, 19 sarcoma patients"}, "[4]": {"details": "1.8 mg/kg Q3W, 2 sarcoma patients"}, "[5]": {"details": "2.4 mg/kg Q3W, 2 sarcoma patients"}, "[6]": {"details": "All TEAEs, All Grades, sarcoma patients"}},
  "data": [
    {"molecule": "B1", "values": [
      {"measurement": "Any TEAE, % of patients", "setting": "[1]", "result": 100.0, "unit": "%"},
      {"measurement": "Any TEAE, no. of patients", "setting": "[1]", "result": 1},
      {"measurement": "Any related serious TEAE, no. of patients", "setting": "[1]", "result": 0},
      {"measurement": "Any serious TEAE, no. of patients", "setting": "[1]", "result": 0},
      {"measurement": "Related TEAE leading to treatment discontinuation, no. of patients", "setting": "[1]", "result": 0},
      {"measurement": "Related TEAEs with CTCAE grade 3 or 4, no. of patients", "setting": "[1]", "result": 0},
      {"measurement": "TEAE leading to treatment discontinuation, no. of patients", "setting": "[1]", "result": 0},
      {"measurement": "TEAE with CTCAE grade 3 or 4, no. of patients", "setting": "[1]", "result": 0},
      {"measurement": "TEAEs leading to death, no. of patients", "setting": "[1]", "result": 0},
      {"measurement": "Any TEAE, % of patients", "setting": "[2]", "result": 100.0, "unit": "%"},
      {"measurement": "Any TEAE, no. of patients", "setting": "[2]", "result": 2},
      {"measurement": "Any related serious TEAE, no. of patients", "setting": "[2]", "result": 0},
      {"measurement": "Any serious TEAE, no. of patients", "setting": "[2]", "result": 0},
      {"measurement": "Related TEAE leading to treatment discontinuation, no. of patients", "setting": "[2]", "result": 0},
      {"measurement": "Related TEAEs with CTCAE grade 3 or 4, no. of patients", "setting": "[2]", "result": 0},
      {"measurement": "TEAE leading to treatment discontinuation, no. of patients", "setting": "[2]", "result": 0},
      {"measurement": "TEAE with CTCAE grade 3 or 4, % of patients", "setting": "[2]", "result": 100.0, "unit": "%"},
      {"measurement": "TEAE with CTCAE grade 3 or 4, no. of patients", "setting": "[2]", "result": 2},
      {"measurement": "TEAEs leading to death, no. of patients", "setting": "[2]", "result": 0},
      {"measurement": "Any TEAE, % of patients", "setting": "[3]", "result": "(100.0%)"},
      {"measurement": "Any TEAE, no. of patients", "setting": "[3]", "result": 19},
      {"measurement": "Any related serious TEAE, % of patients", "setting": "[3]", "result": "(5.3%)"},
      {"measurement": "Any serious TEAE, % of patients", "setting": "[3]", "result": "(36.8%)"},
      {"measurement": "Any serious TEAE, no. of patients", "setting": "[3]", "result": 7},
      {"measurement": "Related TEAE leading to treatment discontinuation, % of patients", "setting": "[3]", "result": "(10.5%)"},
      {"measurement": "Related TEAEs with CTCAE grade 3 or 4, % of patients", "setting": "[3]", "result": "(57.9%)"},
      {"measurement": "Related TEAEs with CTCAE grade 3 or 4, no. of patients", "setting": "[3]", "result": 11},
      {"measurement": "TEAE leading to treatment discontinuation, % of patients", "setting": "[3]", "result": "(10.5%)"},
      {"measurement": "TEAE leading to treatment discontinuation, no. of patients", "setting": "[3]", "result": 2},
      {"measurement": "TEAE with CTCAE grade 3 or 4, % of patients", "setting": "[3]", "result": "(68.4%)"},
      {"measurement": "TEAE with CTCAE grade 3 or 4, no. of patients", "setting": "[3]", "result": 13},
      {"measurement": "TEAEs leading to death, no. of patients", "setting": "[3]", "result": 0},
      {"measurement": "Any related serious TEAE, no. of patients", "setting": "1.8 mg/kg 2Q3W, 19 sarcoma patients, hepatic encephalopathy, CTCAE grade 2", "result": 1},
      {"measurement": "Related TEAE leading to treatment discontinuation, no. of patients", "setting": "1.8 mg/kg 2Q3W, 19 sarcoma patients, neuropathy peripheral grade 2, fatigue grade 3", "result": 2},
      {"measurement": "Any TEAE, % of patients", "setting": "[4]", "result": "(100.0%)"},
      {"measurement": "Any TEAE, no. of patients", "setting": "[4]", "result": 2},
      {"measurement": "Any related serious TEAE, no. of patients", "setting": "[4]", "result": 0},
      {"measurement": "Any serious TEAE, % of patients", "setting": "[4]", "result": "(50.0%)"},
      {"measurement": "Any serious TEAE, no. of patients", "setting": "[4]", "result": 1},
      {"measurement": "Related TEAE leading to treatment discontinuation, no. of patients", "setting": "[4]", "result": 0},
      {"measurement": "Related TEAEs with CTCAE grade 3 or 4, no. of patients", "setting": "[4]", "result": 0},
      {"measurement": "TEAE leading to treatment discontinuation, no. of patients", "setting": "[4]", "result": 0},
      {"measurement": "TEAE with CTCAE grade 3 or 4, % of patients", "setting": "[4]", "result": "(50.0%)"},
      {"measurement": "TEAE with CTCAE grade 3 or 4, no. of patients", "setting": "[4]", "result": 1},
      {"measurement": "TEAEs leading to death, no. of patients", "setting": "[4]", "result": 0},
      {"measurement": "Any TEAE, % of patients", "setting": "[5]", "result": "(100.0%)"},
      {"measurement": "Any TEAE, no. of patients", "setting": "[5]", "result": 2},
      {"measurement": "Any related serious TEAE, no. of patients", "setting": "[5]", "result": 0},
      {"measurement": "Any serious TEAE, % of patients", "setting": "[5]", "result": "(50.0%)"},
      {"measurement": "Any serious TEAE, no. of patients", "setting": "[5]", "result": 1},
      {"measurement": "Related TEAE leading to treatment discontinuation, no. of patients", "setting": "[5]", "result": 0},
      {"measurement": "Related TEAEs with CTCAE grade 3 or 4, % of patients", "setting": "[5]", "result": "(50.0%)"},
      {"measurement": "Related TEAEs with CTCAE grade 3 or 4, no. of patients", "setting": "[5]", "result": 1},
      {"measurement": "TEAE leading to treatment discontinuation, no. of patients", "setting": "[5]", "result": 0},
      {"measurement": "TEAE with CTCAE grade 3 or 4, % of patients", "setting": "[5]", "result": "(50.0%)"},
      {"measurement": "TEAE with CTCAE grade 3 or 4, no. of patients", "setting": "[5]", "result": 1},
      {"measurement": "TEAEs leading to death, no. of patients", "setting": "[5]", "result": 0},
      {"measurement": "Alanine aminotransferase increased, %", "setting": "[6]", "result": "(46.2) %"},
      {"measurement": "Alopecia, %", "setting": "[6]", "result": "(23.9) %"},
      {"measurement": "Anemia, %", "setting": "[6]", "result": "(15.4) %"},
      {"measurement": "Arthralgia, %", "setting": "[6]", "result": "(23.9) %"},
      {"measurement": "Aspartate aminotransferase increased, %", "setting": "[6]", "result": "(42.3) %"},
      {"measurement": "Blood alkaline phosphatase increased, %", "setting": "[6]", "result": "(23.9) %"},
      {"measurement": "Blood bilirubin increased, %", "setting": "[6]", "result": "(3.8) %"},
      {"measurement": "Bone pain, %", "setting": "[6]", "result": "(26.9) %"},
      {"measurement": "Constipation, %", "setting": "[6]", "result": "(26.9) %"},
      {"measurement": "Decreased appetite, %", "setting": "[6]", "result": "(23.9) %"},
      {"measurement": "Diarrhea, %", "setting": "[6]", "result": "(26.9) %"},
      {"measurement": "Fatigue, %", "setting": "[6]", "result": "(61.5) %"},
      {"measurement": "Hypokalemia, %", "setting": "[6]", "result": "(15.4) %"},
      {"measurement": "Hyponatremia, %", "setting": "[6]", "result": "(11.5) %"},
      {"measurement": "Lymphocyte count decreased, %", "setting": "[6]", "result": "(7.7) %"},
      {"measurement": "Nausea, %", "setting": "[6]", "result": "(58.3) %"},
      {"measurement": "Neutrophil count decreased, %", "setting": "[6]", "result": "(26.9) %"},
      {"measurement": "Patients with at least one TEAE, %", "setting": "[6]", "result": "(100.0) %"},
      {"measurement": "Peripheral neuropathy, %", "setting": "[6]", "result": "(15.4) %"}
    ]}
  ]
}
